According to the supplement of paper PMC10126150:
± gives the standard deviation of the averaged measurements.

Test system: ATP
Assay: switch fluorescence ratio, 500 uM ATP over buffer (Cy3 cluster intensity, sum of 5 cycles each) (fold (ratio)); higher = stronger signal-on switching upon ATP binding; sequences stand for … in TCGTCGGCAGCGTCAGATGTGTATAAGAGACAGTTTTTTTTTTTTTTTTTTTTTTTTT…TC
Details: aptamer strand: ATP DNA aptamer (quencher-CACCTGGGGGAGTATTGCGGAGGAAGG + anchor), 100 nM annealed; ATP concentration: 500 uM
Method in brief: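 Cy3-labelled switching-strand clusters on a modified Illumina MiSeq flow-cell were annealed to 100 nM quencher-labelled ATP aptamer and imaged first in selection buffer, then after 15 min with 500 uM ATP at 22 °C. NaOH stripping and re-annealing separated each of five buffer/ATP cycles, and clusters outside 100-1000 RFU were excluded. The fluorescence ratio sums target-cycle Cy3 intensity over buffer-cycle Cy3 intensity per cluster and averages it per switch-domain sequence.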
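Also: ATP exposure 15 min at 22 °C before imaging.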

| Sequence | switch fluorescence ratio |
| --- | --- |
| AGTTTAGAAT | 1.001 ± 0.0052 |
| AGTTTAGGTA | 1.01 ± 0.052 |
| AGTTTATCGT | 1.03 ± 0.043 |
| AGTTTGACCT | 1.15 ± 0.032 |
| AGTTTGACTC | 0.997 ± 0.026 |
| AGTTTGCTTT | 0.995 ± 0.035 |
| AGTTTGGGTG | 1.01 ± 0.0051 |
| AGTTTGTCAT | 0.967 ± 0.032 |
| AGTTTTCCAT | 1.0004 ± 0.00055 |
| AGTTTTGGGC | 0.976 ± 0.016 |
| AGTTTTGGTC | 1.002 ± 0.0056 |
| AGTTTTTGGG | 0.97 ± 0.037 |
| ATAAAAAATC | 0.986 ± 0.017 |
| ATAAAAATCG | 0.989 ± 0.027 |
| ATAAAACGC | 1.04 ± 0.071 |
| ATAAAATTGG | 0.988 ± 0.034 |
| ATAAACGGCG | 1.01 ± 0.024 |
| ATAAACGGCT | 1.01 ± 0.021 |
| ATAAACGGGG | 0.9917 ± 0.001 |
| ATAAACGTTT | 1.018 ± 0.0069 |
| ATAAACTTGG | 1.01 ± 0.033 |
| ATAAAGAGAG | 1.01 ± 0.023 |
| ATAAAGCGAT | 1.06 ± 0.023 |
| ATAAAGGAAG | 0.99 ± 0.011 |
| ATAAAGTCAC | 1.16 ± 0.18 |

| Sequence | switch fluorescence ratio |
| --- | --- |
| ATAAATGAGG | 1.01 ± 0.014 |
| ATAAATTTTT | 1.01 ± 0.023 |
| ATAACAAACT | 1.05 ± 0.012 |
| ATAACACGGC | 1.05 ± 0.1 |
| ATAACGCAGT | 1.0027 ± 0.00069 |
| ATAACGTTCG | 1.06 ± 0.052 |
| ATAACGTTTT | 1.02 ± 0.019 |
| ATAACTACTA | 1.06 ± 0.015 |
| ATAAGACCGT | 1.015 ± 0.0046 |
| ATAAGATGCC | 0.963 ± 0.014 |
| ATAAGGAGGG | 1 ± 0.01 |
| ATAAGGATAG | 1 ± 0.011 |
| ATAAGGATGG | 0.9788 ± 0.0034 |
| ATAAGGCTTT | 0.989 ± 0.029 |
| ATAAGGGGAT | 0.983 ± 0.023 |
| ATAAGTGATC | 0.981 ± 0.069 |
| ATAAGTGATG | 0.995 ± 0.025 |
| ATAAGTGCAA | 1.06 ± 0.011 |
| ATAAGTTAAG | 0.999 ± 0.013 |
| ATAATATAAC | 1 ± 0.018 |
| ATAATCATTT | 1.02 ± 0.021 |
| ATAATGCAGG | 1 ± 0.032 |
| ATAATGTCGC | 0.9702 ± 0.0012 |
| ATAATTAAGG | 0.99 ± 0.028 |
| ATAATTATGC | 1.025 ± 0.0052 |

| Sequence | switch fluorescence ratio |
| --- | --- |
| ATAATTCATC | 1 ± 0.013 |
| ATAATTGGCC | 0.97422 ± 0.00035 |
| ATAATTGGGG | 0.98 ± 0.026 |
| ATAATTGGGT | 0.993 ± 0.022 |
| ATAATTTAGG | 0.9859 ± 0.0029 |
| ATAATTTATT | 0.996 ± 0.012 |
| ATAATTTCAA | 0.999 ± 0.017 |
| ATAATTTGAC | 1.04 ± 0.058 |
| ATAATTTTAG | 0.999 ± 0.031 |
| ATAATTTTTT | 1.03 ± 0.063 |
| ATACAAGGGG | 1.03 ± 0.033 |
| ATACAGGGCT | 1.01 ± 0.029 |
| ATACATAACG | 1.38 ± 0.052 |
| ATACATTGTC | 0.978 ± 0.074 |
| ATACCAATGA | 1.05 ± 0.029 |
| ATACCAGTG | 1.12 ± 0.055 |
| ATACCTCTTG | 0.992 ± 0.022 |
| ATACCTGGTC | 1.053 ± 0.0017 |
| ATACGAATTC | 1.01 ± 0.049 |
| ATACGCCGGT | 1.013 ± 0.004 |
| ATACGGGGCT | 1.03 ± 0.027 |
| ATACGTTTCG | 0.998 ± 0.03 |
| ATACTACGGA | 1.03 ± 0.062 |
| ATACTATTTT | 0.996 ± 0.023 |
| ATACTCAACA | 1.248 ± 0.0099 |

| Sequence | switch fluorescence ratio |
| --- | --- |
| ATACTCTATT | 1.07 ± 0.025 |
| ATACTGAGGC | 0.999 ± 0.029 |
| ATACTGGACT | 1.201 ± 0.0084 |
| ATACTTATTG | 0.99646 ± 0.0008 |
| ATAGAAGCGG | 0.9684 ± 0.0029 |
| ATAGAATCAG | 0.975 ± 0.038 |
| ATAGAATGTG | 1.007 ± 0.0082 |
| ATAGAGGAGA | 0.992 ± 0.048 |
| ATAGAGTGCG | 0.957 ± 0.024 |
| ATAGATTAGT | 0.996 ± 0.035 |
| ATAGCGCCG | 1.03 ± 0.035 |
| ATAGCTGGTT | 0.991 ± 0.018 |
| ATAGGAGTAT | 1.01 ± 0.026 |
| ATAGGATCTT | 0.996 ± 0.028 |
| ATAGGCAGAG | 1.003 ± 0.0083 |
| ATAGGCGGGA | 0.9932 ± 0.00079 |
| ATAGGGCCTT | 1.02 ± 0.05 |
| ATAGGGGCGG | 0.978 ± 0.035 |
| ATAGGGGGGA | 1.01 ± 0.018 |
| ATAGGGGTT | 1.021 ± 0.005 |
| ATAGGGTTGC | 1.01 ± 0.014 |
| ATAGGTACGC | 1.04 ± 0.036 |
| ATAGGTATGT | 0.998 ± 0.023 |
| ATAGGTTTGG | 0.97 ± 0.014 |
| ATAGGTTTGT | 0.989 ± 0.013 |

| Sequence | switch fluorescence ratio |
| --- | --- |
| ATAGGTTTTA | 0.976 ± 0.017 |
| ATAGTAAGTA | 0.996 ± 0.024 |
| ATAGTAGGTA | 0.99137 ± 0.00055 |
| ATAGTATGGT | 0.9976 ± 0.0089 |
| ATAGTCAAAC | 1.027 ± 0.0025 |
| ATAGTCATAT | 0.9978 ± 0.0017 |
| ATAGTCCTCC | 1.2 ± 0.0043 |
| ATAGTGAGTT | 1 ± 0.016 |
| ATAGTGATGT | 0.995 ± 0.04 |
| ATAGTGGGGC | 1.056 ± 0.0054 |
| ATAGTGGGGG | 0.975 ± 0.017 |
| ATAGTGTGGC | 0.952 ± 0.029 |
| ATAGTTTTCC | 1 ± 0.024 |
| ATATAAGCCC | 1.02 ± 0.021 |
| ATATAAGGGT | 1.02 ± 0.015 |
| ATATAAGTTC | 1.06 ± 0.055 |
| ATATACGTTG | 1.03 ± 0.011 |
| ATATAGGGGG | 0.997 ± 0.014 |
| ATATATAGCC | 1.01 ± 0.022 |
| ATATATCTAG | 0.998 ± 0.029 |
| ATATATGGGA | 0.973 ± 0.022 |
| ATATATGGTT | 0.988 ± 0.036 |
| ATATATGTTT | 0.9649 ± 0.0016 |
| ATATATTGGC | 1.02 ± 0.054 |
| ATATATTTGT | 1.008 ± 0.0041 |

| Sequence | switch fluorescence ratio |
| --- | --- |
| ATATCAAAAT | 1.01 ± 0.013 |
| ATATCAATGT | 1 ± 0.028 |
| ATATCAGTTC | 1.012 ± 0.0091 |
| ATATCATCGG | 0.964 ± 0.025 |
| ATATCCTCCC | 1.35 ± 0.016 |
| ATATCGCTGA | 0.987 ± 0.013 |
| ATATCGGAGG | 0.99 ± 0.041 |
| ATATCGGATG | 1.071 ± 0.0078 |
| ATATCGTTGA | 0.978 ± 0.021 |
| ATATCTCCGG | 1.07 ± 0.014 |
| ATATGAAAGT | 0.977 ± 0.024 |
| ATATGAATGA | 1.01 ± 0.015 |
| ATATGATAGA | 0.9921 ± 0.0026 |
| ATATGCATAG | 1.05 ± 0.051 |
| ATATGCTATC | 1.02 ± 0.014 |
| ATATGCTGGT | 0.982 ± 0.014 |
| ATATGCTGTA | 0.989 ± 0.032 |
| ATATGGAAAT | 1.006 ± 0.0027 |
| ATATGGAGTT | 0.943 ± 0.022 |
| ATATGGGTGG | 1.01 ± 0.016 |
| ATATGGTATT | 0.99 ± 0.023 |
| ATATGTATGA | 1.003 ± 0.0037 |
| ATATGTCAGA | 0.9958 ± 0.0056 |
| ATATGTCGCT | 1.01 ± 0.026 |
| ATATGTGGTG | 1.02 ± 0.028 |

| Sequence | switch fluorescence ratio |
| --- | --- |
| ATATGTTTGG | 1.01 ± 0.018 |
| ATATTACGGG | 1.03 ± 0.039 |
| ATATTAGGCA | 1.01 ± 0.037 |
| ATATTATTAC | 1.06 ± 0.016 |
| ATATTATTGT | 0.9911 ± 0.0085 |
| ATATTCCACA | 0.9984 ± 0.0093 |
| ATATTCTTGT | 1.009 ± 0.0095 |
| ATATTCTTTT | 1.03 ± 0.091 |
| ATATTGACGG | 1.09 ± 0.12 |
| ATATTGAGAT | 0.998 ± 0.037 |
| ATATTGAGGG | 1.01 ± 0.00033 |
| ATATTGCGTT | 1.01 ± 0.02 |
| ATATTGGATT | 0.994 ± 0.018 |
| ATATTGGGGC | 0.993 ± 0.017 |
| ATATTGGTTA | 0.9923 ± 0.0052 |
| ATATTGGTTT | 0.997 ± 0.011 |
| ATATTGTTGG | 0.972 ± 0.031 |
| ATATTGTTTT | 1.02 ± 0.019 |
| ATATTTACGG | 1.079 ± 0.0071 |
| ATATTTCATT | 0.961 ± 0.012 |
| ATATTTCCTA | 0.989 ± 0.033 |
| ATATTTGTTT | 0.993 ± 0.022 |
| ATATTTTGAC | 1.05 ± 0.061 |
| ATATTTTTTA | 0.9761 ± 0.0095 |
| ATATTTTTTG | 0.978 ± 0.024 |

| Sequence | switch fluorescence ratio |
| --- | --- |
| ATCAAACGAG | 1.006 ± 0.0073 |
| ATCAAACTCG | 0.979 ± 0.029 |
| ATCAAAGAAC | 1.05 ± 0.042 |
| ATCAACTTAT | 1.02 ± 0.044 |
| ATCAAGGATG | 1.03 ± 0.038 |
| ATCAATGTGC | 0.962 ± 0.088 |
| ATCAATTGTT | 0.989 ± 0.015 |
| ATCACAAATA | 1.02 ± 0.024 |
| ATCACAGCTA | 1.04 ± 0.017 |
| ATCACTCTTT | 1.02 ± 0.058 |
| ATCAGAGTGC | 1.03 ± 0.06 |
| ATCAGCGATC | 2.24 ± 0.22 |
| ATCAGCGTTT | 1.012 ± 0.0092 |
| ATCAGGATCG | 1.01 ± 0.014 |
| ATCAGGGCGT | 0.987 ± 0.032 |
| ATCAGGGGGA | 0.997 ± 0.02 |
| ATCAGTTAAT | 0.996 ± 0.032 |
| ATCAGTTTGG | 1.01 ± 0.015 |
| ATCATAGGAT | 1.0329 ± 0.00082 |
| ATCATATATC | 0.983 ± 0.089 |
| ATCATGCGCT | 0.9964 ± 0.0092 |
| ATCATGCGGC | 0.983 ± 0.014 |
| ATCATGGAGG | 0.993 ± 0.017 |
| ATCATGGCGG | 0.99 ± 0.017 |
| ATCATTAGAA | 0.976 ± 0.031 |
